Results taken from publication PMC8808184 (The Journal of Biological Chemistry, 2021).

T1: FN1–FN3 region of CNTN5 titrated against human APLP1(E1) and human APLP2(E1) ( (chicken, human, mouse and …, UniProt O94779 673-972))
T1 construct: contactin 5, FN1–FN3; source: E. coli BL21(DE3), purified (IMAC, 3C protease cleavage, ion exchange, gel filtration)
T1 sequence (looked up): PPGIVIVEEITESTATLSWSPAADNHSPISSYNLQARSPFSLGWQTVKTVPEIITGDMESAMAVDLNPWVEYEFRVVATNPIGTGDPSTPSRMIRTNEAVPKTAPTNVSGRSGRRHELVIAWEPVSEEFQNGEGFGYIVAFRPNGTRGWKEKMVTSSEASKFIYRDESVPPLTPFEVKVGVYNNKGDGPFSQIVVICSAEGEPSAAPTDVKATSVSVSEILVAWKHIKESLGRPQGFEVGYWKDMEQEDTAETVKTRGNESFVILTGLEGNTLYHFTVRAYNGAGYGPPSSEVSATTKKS

B1: FN1–FN3 region of human CNTN4 (domain or fragment, UniProt Q8IWV2 599-899, looked up)
chain: PPEAVTIDEITDTTAQLSWRPGPDNHSPITMYVIQARTPFSVGWQAVSTVPELIDGKTFTATVVGLNPWVEYEFRTVAANVIGIGEPSRPSEKRRTEEALPEVTPANVSGGGGSKSELVITWETVPEELQNGRGFGYVVAFRPYGKMIWMLTVLASADASRYVFRNESVHPFSPFEVKVGVFNNKGEGPFSPTTVVYSAEEEPTKPPASIFARSLSATDIEVFWASPLEKNRGRIQGYEVKYWRHEDKEENARKIRTVGNQTSTKITNLKGSVLYHLAVKAYNSAGTGPSSATVNVTTRKP
notes: human contactin 4, FN1–FN3; source: E. coli BL21(DE3), purified (IMAC, 3C protease cleavage, ion exchange, gel filtration)
B2: E1 domain of human APLP2 (domain or fragment, UniProt Q06481 46-205, looked up)
chain: AVAEPQIAMFCGKLNMHVNIQTGKWEPDPTGTKSCFETKEEVLQYCQEMYPELQITNVMEANQRVSIDNWCRRDKKQCKSRFVTPFKCLVGEFVSDVLLVPEKCQFFHKERMEVCENHQHWHTVVKEACLTQGMTLYSYGMLLPCGVDQFHGTEYVCCPQ
modifications: biotin (EZ-Link NHS-PEG4-Biotin, 1:1 molar ratio)
notes: human amyloid beta precursor like protein 2, E1 domain; host and tags are those told for the E1 domains in general; source: E. coli Origami2(DE3), purified (as told for the E1 domains)

Columns and labels:
Test in all cases: BLI; biotinylated E1 domain ([…] nM) immobilised on streptavidin tips, CNTN FN1–FN3 in solution; room temperature; 150 mM NaCl, 10 mM Na-Hepes pH 7.5, 1 mg/ml BSA, 0.02% Tween-20; BLItz or Octet K2; KD from the signal at equilibrium
Settings in all cases: both partners purified
E1 domain of human APLP2 = biological target: B2
[1] = biological target: B1
[2] = biological target: T1, FN1–FN3 region of CNTN5 titrated …

| fold decrease in affinity against human CNTN4 with APLP1 (E1 domain of human APLP2) | Kd [1] | Kd [2] | Binder |
| --- | --- | --- | --- |
| 4 fold |  |  | B1 |
|  | 6.3 µM | ~38 µM | B2 |
